Measured values reported in the DeepSol protein solubility set.

assay: soluble on expression in E. coli; label from the status in PepcDB or PDB records

Sequence	soluble on expression in E. coli
MGSDKIHHHHHHMKLRNLLPLLGLMASAAHADAVTIQSCGVSQVFDKTPSRAITLNQQATEVMLALGLQEAMVGTAYIDDAIPAQWNDAYESVPVLAEKYPAAEVVLAQEPDFLFAGFGSAFSEDNLGAAEKWHDLGIGTYLVDASCKDKHLQDVPLTVAPIFEDIETVGKIFNVEDRANALIDTLQQRLDSVKAAPSGAGQTAFIYDSGAETPFSIGCCGGPALLASLTGLQSISSDVPGTWVDLSWEHVVAADPDVILLIEADWSTAAEKRAHMEADPVLSALRAVKEGRFVTVPFSETLLGMRFADGVETVNNQLAKLP	not soluble
MNQTLETGTTTVGITLKDAVIMATERRVTMENFIMHKNGKKLFQIDTYTGMTIAGLVGDAQVLVRYMKAELELYRLQRRVNMPIEAVATLLSNMLNQVKYMPYMVQLLVGGIDTAPHVFSIDAAGGSVEDIYASTGSGSPFVYGVLESQYSEKMTVDEGVDLVIRAISAAKQRDSASGGMIDVAVITRKDGYVQLPTDQIESRIRKLGLILHHHHHH	soluble
MIEITFLGGGGGRFVTITQVRATGGFFIKASKNIYVDPGPGALVRMWRYKIDPRKVDVLFISHRHTDHCNDAEVLVEGMTYGVTKKRGTLIGSKSVVHGDENHTPALSKYHLDALEEVHAPNPGDRFKIGEDEMIITPSLHSDPTTIGFRLKTSYGDISYIPDTEYFEELVKWHDGARVIIAAVTRPRDMRIPFHLSSEDAVYLLKSMKQKPEVFIMTHAGMKMHFAGPYKEAQFIQNLTGVKTYVAKEGFKVSIGKEISVKTLRPARFVLEHHHHHH	soluble
MAILAARIAVSNLHKETKKVFSDVMEDLYNYINPHNGKHSPMVAKSTLDIVLANKDRLNSAIIYDRDFSYNYFGFKTLERSYLLKINGKVAERPQHMLMRVSVGIHKEDIDAAIETYNLLSERWFTHASPTLFNAGTNRPQLSSCFLLSMKDDSIEGIYDTLKQCALISKSAGGIGVAVSCIRATGSYIAGTNGNSNGLVPMLRVYNNTARYVDQGGNKRPGAFAIYLEPWHLDIFEFLDLKKNTGKEEQRARDLFFALWIPDLFMKRVETNQDWSLMCPNECPGLDEVWGEEFEKLYASYEKQGRVRKVVKAQQLWYAIIESQTETGTPYMLYKDSCNRKSNQQNLGTIKCSNLCTEIVEYTSKDEVAVCNLASLALNMYVTSEHTYDFKKLAEVTKVVVRNLNKIIDINYYPVPEACLSNKRHRPIGIGVQGLADAFILMRYPFESAEAQLLNKQIFETIYYGALEASCDLAKEQGPYETYEGSPVSKGILQYDMWNVTPTDLWDWKVLKEKIAKYGIRNSLLIAPMPTASTAQILGNNESIEPYTSNIYTRRVLSGEFQIVNPHLLKDLTERGLWHEEMKNQIIACNGSIQSIPEIPDDLKQLYKTVWEISQKTVLKMAAERGAFIDQSQSLNIHIAEPNYGKLTSMHFYGWKQGLKTGMYYLRTRAHHHHHH	soluble
MKLEVLPLDQKTFSAYGDVIETQEREFFHINNGLVERYHDLAKVEVLEQDRTLISINRAQPAAMPIVVHELERHPLGTQAFVPMNGEAFVVIVALGDDKPDLSTLRAFISNGRQGVNYHRNVWHHPLFAWQTVTDFLTVDRGGSDNCDVESIPTHELCFALEHHHHHH	soluble
MQNETRTLQLDPHLHIEAYRFKGIMQKFPNHFHDYYVIGFIEKGQRYLACQDQEYIINPGDLLLFNPRDTHSCEQIDGRTLDYRCINVMPDIMEKAVKEITGSGHLPYFSQHVLFRHELTASLQELHILISEEKQALRKEELFLHLLEELIRHYSDVTFLSSVPEPSDEVKMVCE	not soluble
MGSDKIHHHHHHMWKELVESISNDMDNVDECFRPTHFWRMGAEYLQQDLDTYGITKFRSLPSTLGYFVPTYLFNGMITEPKKYAELASRCQDIVVTPKAKLFMTDFLSGESQARADFRVYLASQSNRAPYTEHFSESKVGEPVEHFEFEGRNYSRSSLNYLLGINFLKQHISDLSVKTVVEIGGGFGSLGEILLSDERNDTFYINVDIPPTCIFSTFYLQSVFGQSHVADYSVLSKQALVIDDLRSKHKAAIMCPWQLPSLEGKIDLFVNFISFQEMEPDIVENYLSEIDRLQSTYILLRNLREGKQLAHDDSQVGVKKAIKSDDYDKFLPDYELLATNVLPFGYQTIDGFHSELRLYRRKQPKLG	not soluble
MYRKGAQAERELIKLLEKHGFAVVRSAGSKKVDLVAGNGKKYLCIEVKVTKKDHLYVGKRDMGRLIEFSRRFGGIPVLAVKFLNVGWRFIEVSPKIEKFVFTPSSGVSLEVLLGIQKTLEGKS	soluble
MLLMEKILYQTDEFKLKPSGWYKTIPPKKDGGTEFEIMLSGPIAFTDRFIDPATRKEKVFLSDLNNIELVEKASILTALQLPSLIEYGFTINEKHIRDLGFVLQQMRSTTPLSTIYSGVGMLHTLLGPLISLDQPYFSNEITNSTSIICDNKYDLIPKGNLSEWLQMYKEEVHGNLSLELDVLFGVSSLVTAFLKYHNNVEFSGTIFSFTGQSSTGKSTAAMLAASVAGNPTKGTENLFRSWNATRNALEGYLSGNYGVPIVLDELSAATFHDTTGLLYSFAEGQGRQRANINGDVKTPKNLEHHHHHH	not soluble
MSLFYANMKEFELIKLVERLFGDEDVITPAGKHDAAYVKIGNRLIVLTCDTVNEKSDFPPYMLPEEMGWMAIAVTLSDVAACGARPLYFLSSISLKSIEFFEDILLGIKRCADRFGVKVVGGDIDFSEITTIAGFAIGEARRHITRRGAKVGEGVFITDLPGKAQLCLEMLERGAKREELPYAEKLYTPVPRIEEGMRIARYASAMTDVSDSLAVSLHQISQSSNVKIVLDNIVLSHLSPAENALELFLYGGGDFELVYTAKSSDDGIRIGRVERGKGVFAEIDGKTFEVEFRGYSHFEGHHHHHH	soluble
MNAFNPTQFRAQFPALADAGVYLDSAATALKPQAVIDATHQFYCLSAGNVHRSQFAQAQRLTAQYEAARAKAARLLNAPDEKSIVWTRGTTEAINMVAQCYARPRLRPGDEIIVSVAEHHANLVPWLMVAQQTGAQVIKLPLNDRRLPDVERLPELITSRSRILALGQMSNVTGGCPDLASAISAAHAAGMVVMVDGAQGAVHFPADVQQLDIDFYAFSAHKLYGPTGIGVLYGKPELLEAMSPWLGGGKMIRDVSFEGFTTQSAPWKLEAGTPNVAGVIGLSAALEWLSDIDIEQAENWSRGLATLAEDALAKRPGFRSFRCQDSSLLAFDFVGVHHGDMVTLLAEYGIALRAGQHCAQPLLAELGVTGTLRASFAPYNTQHDVDALVNAVDRALELLVD	not soluble
MDDRRPQLTEEQLLFRIALTHVKGVGSVLARQLLSAMGSPEAIFSDRKELVQRLPKAPRRLLDAIFSPSVMEEARRKLDQALKAGLNMYFITDDNYPYRLKECVDAPILLYSKGNVDLSPRRVLSIVGTRNITAYGRTATERIVSGLAETIPDLLIVSGLAYGVDVAAHKAALDNGLPTVAVLAHGLDRIYPSGHRSIAMEMLRNGGLLTDYPMGTEPERFNFVGRNRIVAGLSDATLVIESAEKGGSLITAGLAFGYNREVLALPGRATDSRSAGCNALIRDQKAALVSSAQDVLTLLDWSSTIDAKPQTLNFRPDSWPDTPVAECLLRAGTASVDELTRATGLPINDVSAQLFDLELDGLVQSQPGGIYSVI	not soluble
MNLKDKILGVAKELFIKNGYNATTTGEIVKLSESSKGNLYYHFKTKENLFLEILNIEESKWQEQWKKEQIKCKTNREKFYLYNELSLTTEYYYPLQNAIIEFYTEYYKTNSINEKMNKLENKYIDAYHVIFKEGNLNGEWSINDVNAVSKIAANAVNGIVTFTHEQNINERIKLMNKFSQIFLNGLSKHHHHHH	soluble
MGSDKIHHHHHHMEKFIESVANFIDEEDVKVLKAIGSDPIVLHSIKKIFDYPEKANKYLILLRDSPVAVYLVAKISERLSRYLEGEDEAKCFAVFLTALRELRECGDRRVLQNMFLLLKEAIERRLSDGKYEDAAKLVMEFQDFGFKSYVKKVLFFALEVSEEGDYRRAMRILELLPETDAVIDAKASVLLEWGRSLAMSNPEAGMKKIEESLRLKDTVEARLAMAEIHESMGNYEKAYFIYTSLRSLYPGIDRRIARMLMEWGEEIGDVEKLREAYNLAMGDRLLAEEIERRIKKLEAQRLSGS	not soluble
MMTKYGVVGTGYFGAELARFMSKVEGAKITAIYDPVNAAPIAKELNCVATATMEALCSHPDVDCVIIASPNYLHKAPVIAAAKAGKHVFCEKPIALNYQDCKDMVDACKEAGVTFMAGHVMNFFHGVRHAKALIKAGEIGEVTQVHTKRNGFEDVQDEISWKKIRAKSGGHLYHHIHELDCTLFIMDETPSLVSMAAGNVAHKGEKFGDEDDVVLITLEFESGRFATLQWGSSFHYPEHYVLIEGTTGAILIDMQNTAGYLIKAGKKTHFLVHESQAEDDDRRNGNISSEMDGAIAYGKPGKRTPMWLSSIMKLEMQYLHDVINGLEPGEEFAKLLTGEAATNAIATADAATLSSNEGRKVKLTEILGLEHHHHHH	soluble
SMKEPSQQRVKRWGFGMDEALKDPVGREQFLKFLESEFSSENLRFWLAVEDLKKRPIKEVPSRVQEIWQEFLAPGAPSAINLDSKSYDKTTHNVKEPGRYTFEDAQEHIYKLMKSDSYPRFIRSSAYQELLQAKKKSGNSMDRRTS	soluble
METPKLSVEAIEKGTVIDHIPAGRGLTILRQFKLLHYGNAVTVGFNLPSKTQGSKDIIKIKGVCLDDKAADRLALFAPEAVVNTIDNFKVVQKRHLNLPDEIAEVFRCPNTNCAGHGEPVKSRFYVKKHNGQTRLKCHYCEKTYSRDSVAEA	not soluble
MSLYSDSVTHCLQTCNSPYQKSEKDHRRLSLFAARLFLYNLALFNQFDISMTQSIWRSVTPQFEQFNKVFENYPNLAPISLIEIQPRLTSALEQFVHLKGFSRILLINAPDNSIYRSLFKDALLEQDLDVPVVSTETLDISEILGQVKVEHGGLVHKTSGYLEQANGGYLIVSANLLLANPRYWPTVKAAVLGETVSPINCDPKSPLPNRLGSSYDVKLIVVGDRTQLGDLDFLDADIHSGLCLFSELELDLKIEEETIEDYLGYLRWLCEQYNLPSLTCSAIQSLMTAGARYTEDQYYAPLCLMWHRALLEEARLESEEPLIDAEHIEIALDKRYLRESYLPERALDDILDGQVIIETQGEQVGQVNGLTVIEVTGHPMPYGEPARISCVIHFGDGDIADVERKVELGGNLHAKGMMIMQAFVSSALNLDGSLPFSASIVFEQSYSEVDGDSASLAELCSLVSALSEYPIDQQIAVTGAVDQFGRVQAVGGLNEKIEGFYRVCCHQGLTGEQGVILPSSNLKHLALHKSVVESIKNGEFNIWPVSTVDEAIPLLMGKPFRGEDEGHHHHHH	not soluble
MPFAIGQRWLSESENALGLGVITALDQRTVTIYFPAADETRIYAMAQAPLSRIVFSKGETLSHQAGWQGEILDVQNMNGLLFYLVKNPQDEDVIVQERDISPIISFSQAKDRLFSAQIDRSTHFALRY	not soluble
EKDSVLRHNINKLGLTSIAVEPVAAWKLNDRHSFGAGIIAQHTSAELRKYADWGIKSKAEILTAKPPKPNGVAEAAKIQADGHADVKGSDWGFGYQLAWMWDINDRARVGVNYRSKVSHTLKGDAEWAADGAAAKAMWSTMLAANGYTANEKARVKIVTPESLSVHGMYKVSDKADLFGDVTWTRHSRFDKAELVFEKEKTVVKGKSDRTTITPNWRNTYKVGFGGSYQISEPLQLRAGIAFDKSPVRNADYRMNSLPDGNRIWFSAGMKYHIGKNHVVDAAYTHIHINDTSYRTAKASGNDVDSKGASSARFKNHADIIGLQYTYKFK	not soluble
CNFDCLYCELEGKKATDSMGEVAKVEEILEELREALPRYKPDVITVTANGEPTLYPALLPLIRGINALPHSAKTLILSNGSRFGEPEVQEALLEFDMVKFSLDAVSARAFKRVDRAHDSLSISQIIQGIKGFRSRYRGDLIAEVLFVKGVNDSPEEARAIARVLKEIAPSRVDLSTIDRPPAYKVEGVSPQKLEE	not soluble
